Experimental data as given in patent US20140120095A1 (Boehringer Ingelheim, published 2014).

Key:
recombinant human DLL4 = target: T1, recombinant human DLL4 (human, UniProt Q9NR61 25-522); test: competition AlphaScreen, biot-hDLL4/hNotch1-Fc
T1 construct: also called rhDLL4; hDLL4
Experimental: In brief, 1 nM biotinylated human DII4 is captured on streptavidin-coated donor beads (20 μg/mL), while 0.4 nM of the receptor human Notch1 (as a Fc fusion protein) is captured on anti-human Fc VHH-coated acceptor beads (20 μg/mL). Both loaded beads are incubated together with a dilution range of the competing VHH (FIG. 4 A-E).

[1] = target: T2, mouse DLL4 overexpressed on cells (mouse, UniProt Q9JI71 27-686); test: FACS titration on HEK293-mDLL4 cells, MCF
T2 construct: whole, on cells; also called CHO-mDLL4; CHO-mDII4
T2 sequence (Q9JI71 27-686): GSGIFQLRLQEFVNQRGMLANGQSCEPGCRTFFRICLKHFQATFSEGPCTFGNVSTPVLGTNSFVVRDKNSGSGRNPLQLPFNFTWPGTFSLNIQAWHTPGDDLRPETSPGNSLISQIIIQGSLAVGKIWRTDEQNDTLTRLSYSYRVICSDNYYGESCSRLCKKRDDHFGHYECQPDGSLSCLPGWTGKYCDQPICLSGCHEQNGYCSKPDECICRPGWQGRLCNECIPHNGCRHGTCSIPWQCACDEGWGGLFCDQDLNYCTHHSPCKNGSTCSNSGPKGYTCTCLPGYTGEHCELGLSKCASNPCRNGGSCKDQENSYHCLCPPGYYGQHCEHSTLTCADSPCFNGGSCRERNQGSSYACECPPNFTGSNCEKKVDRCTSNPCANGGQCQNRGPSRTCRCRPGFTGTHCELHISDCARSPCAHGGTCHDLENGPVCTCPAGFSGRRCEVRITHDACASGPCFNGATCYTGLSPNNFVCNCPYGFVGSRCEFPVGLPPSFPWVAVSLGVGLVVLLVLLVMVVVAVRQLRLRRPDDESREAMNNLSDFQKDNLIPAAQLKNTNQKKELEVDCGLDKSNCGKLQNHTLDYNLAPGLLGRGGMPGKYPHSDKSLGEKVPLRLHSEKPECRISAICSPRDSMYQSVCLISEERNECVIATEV
Experimental: In order to determine the cynomologus cross-reactivity of the VHHs, a FACS binding experiment is performed. Cynomolgus DII4 expressing HEK293 cells (transient or stable transfection) are used for a titration binding experiment of the VHHs. After a 30 minutes incubation on ice, all samples are washed and detection is performed by applying anti-c-myc˜Alexa647 (Santa Cruz Biotechnology, Santa Cruz, Calif., USA). Human and mouse DII4 overexpressing HEK293 cells are taken as reference. The mean MCF value is determined on the FACS Array and used for calculation of the EC₅₀ value (see FIG. 9 A-E).

[2] = target: T2, mouse DLL4 overexpressed on cells; test: FMAT, labelled hNotch1-Fc on CHO-mDLL4, periplasmic extract
Excerpt: All calculations are based on the FL1_total signal which comprises the average of the fluorescence per well times the number of counts per well.

[3] = target: T3, mouse DLL4 expressed on CHO cells (mouse, UniProt Q9JI71 27-686); test: competition FMAT, labelled hNotch1-Fc on CHO-mDLL4 cells
T3 construct: whole, on cells; also called mDLL4; CHO-mDLL4
T3 sequence (Q9JI71 27-686): as above

[4] = target: T4, human DLL4 expressed on cells (CHO-hDLL4; HEK293-hDLL4) (human, UniProt Q9NR61 27-685); test: FACS titration on human DLL4 expressing cells, detection anti-c-myc Alexa647 (Example 5.8, Example 7), MCF
T4 construct: full length human DLL4 overexpressed on CHO cells (FMAT, FACS) or HEK293 cells (reporter assay)

| IC50 (recombinant human DLL4) [nM] | EC50 (read off the curve) [1] [nM] | % inh [2] [%] | IC50 [3] [nM] | Binder | further results |
| --- | --- | --- | --- | --- | --- |
| 1.2 |  |  |  | DLLBII56A09 (VHH, also called 56A9; DLLBII56A9) VHH: EVQLVESGGGLVQPGGSLRLSCAASGFTFDDYAIGWFRQAPGKEPEGISCISSSGGITYYADSVKGRFTTSRDNAKNTVYLQMNSLKPEDTAVYYCATPGIAACRGIHYTGQGTQVTVSS |  |
| 5 | ~30 | 84 |  | DLLBII115A05 (VHH, also called 115A5; DLLBII115A5) VHH: EVQLVESGGGLVQPGGSLRLSCAASGFTFGSYDMSWVRRSPGKGPEWVSSINSGGGSTYYADFVKGRFTISRDNAKNTLYLQMNSLKPEDTAVYYCAADRYIRARQGDYWGAYEYDYWGQGTQVTVSS |  |
|  |  |  | 50.8 | DLLBII136C07 (VHH, not shown: small tags and cut ends) VHH: EVQLVESGGGLVQPGGSLRLSCAASGFTFGSYDMSWVRRSPGKGPEWVSSINSGGGSTYYADYVKGRFTISRDNAKNTLYLQMNSLKPEDTAVYYCAADRYIWARQGEYWGAYEYDYWGQGTQVTVSS |  |
|  | ~40 | 92 |  | DLLBII101G08 (VHH, also called 101G8; DLLBII101G8) VHH: EVQLVESGGGLVQAGGSLRLSCAASGRTFSSYAMAWFRQAPGKEREFVAAIRWSGGTAYYADSVQGRFTISRDNAKNTVYLQMNSLKPEDTAVYYCANRAADTRLGPYEYDYWGQGTQVTVSS |  |
|  |  |  |  | DLLBII129E11 (VHH, not shown: small tags and cut ends) VHH: EVQLVESGGGLVQAGGSLRLSCAASGRTFSSYAMAWYRQAPGKEREYVAAIRWSGGTAYYADSVQGRFTISRDNAKNTVYLQMNSLKPEDTAVYYCANRAPDTRLRPYLYDYWGQGTQVTVSS | EC50 (read off the curve) [4]: ~10 nM |
|  |  |  | 15.9 | DLLBII129B05 (VHH, not shown: small tags and cut ends) VHH: EVQLVESGGGLVQAGGSLRLSCAASGRTFSSYAMAWYRQAPGKEREYVAAIRWSGGTAYYADSVQGRFTISRDNAKNTVYLQMNSLKPEDTAVYYCANRAPDTRLAPYEYDHWGQGTQVTVSS |  |
